Assay results reported in the supplement of paper PMC7877785.
± gives the uncertainty stated by the source.

Test: self-splicing fitness, log relative to wild type (ln ratio); higher = more splicing; Tetrahymena group I intron in knt gene, E. coli kanamycin selection, DiMSum; sequences stand for … in CUCUCU…GGAGGGAAAAGUUAUCAGGCAUGCACCUGGUAGCUAGUCUUUAAACCAAUAGAUUGCAUCGGUUUAAAAGGCAAGACCGUCAAAUUGCGGGAAAGGGGUCAACAGCCGUUCAGUACCAAGUCUCAGGGGAAACUUUGAGAUGGCCUUGCAAAGGGUAUGGUAAUAAGCUGACGGACAUGGUCCUAACCACGCAGCCAAGUCCUAAGUCAACAGAUCUUCUGUUGAUAUGGAUGCAGUUCACAGACUAAAUGUCGGUCGGGGAAGAUGUAUUCUUCUCAUAAGAUAUAGUCGGACCUCUCCUUAAUGGGAGCUAGCGGAUGAAGUGAUGCAACACUGGAGCCGCUGGGAACUAAUUUGUAUGCGAAAGUAUAUUGAUUAGUUUUGGAGUACUCGUGGUCG
In short: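 The eight P1ex-region nucleotides of an intron in the knt kanamycin-resistance gene on pET-22b(+) were all randomised and the library put into E. coli BL21(DE3). Six replicate transformations were grown overnight at 37°C or 30°C on LB agar with or without 25 μg/mL kanamycin, together with 100 μg/mL carbenicillin, 50 μM IPTG and 0.2% rhamnose. Colonies were pooled and amplicon-sequenced on an Illumina HiSeq 2500. Fitness from DiMSum is the error-weighted combination of wild-type-normalised replicate fold changes, kanamycin over none.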

Row | Sequence | self-splicing fitness (ln) (30 °C) | self-splicing fitness (ln) (37 °C)
1 | GUCUAGCAAUAUUACGUCCC | 0.0985 ± 0.14 | -0.0539 ± 0.14
2 | GUCUAGCAAUAUUACGUCUA | -1.33 ± 0.23 | -1.22 ± 0.16
3 | GUCUAGCAAUAUUACGUGUA | -0.862 ± 0.084 | -0.516 ± 0.086
4 | GUGAAGCAAUAUUACGAAGA | -0.478 ± 0.086 | -1.11 ± 0.14
5 | GUGAAGCAAUAUUACGAAUG | -0.846 ± 0.075 | -0.708 ± 0.11
6 | GUGAAGCAAUAUUACGAGAU | -2.25 ± 0.16 | -0.51 ± 0.19
7 | GUGAAGCAAUAUUACGAUGA | -0.639 ± 0.075 | 0.631 ± 0.093
8 | GUGAAGCAAUAUUACGCAAU | -0.705 ± 0.088 | -0.623 ± 0.12
9 | GUGAAGCAAUAUUACGCGAG | -0.336 ± 0.057 | -0.0325 ± 0.07
10 | GUGAAGCAAUAUUACGCGGC | -2.03 ± 0.33 | -1.24 ± 0.4
11 | GUGAAGCAAUAUUACGCGGG | -2.8 ± 0.19 | -1.55 ± 0.2
12 | GUGAAGCAAUAUUACGCUGC | -3.05 ± 0.21 | -2.19 ± 0.21
13 | GUGAAGCAAUAUUACGCUUU | -4.83 ± 0.36 | -2.84 ± 0.43
14 | GUGAAGCAAUAUUACGGAGU | -1.3 ± 0.072 | -0.63 ± 0.091
15 | GUGAAGCAAUAUUACGGCGG | -1.24 ± 0.13 | -1.26 ± 0.14
16 | GUGAAGCAAUAUUACGGUCU | 0.172 ± 0.098 | 0.824 ± 0.096
17 | GUGAAGCAAUAUUACGGUUC | -2.13 ± 0.12 | -1.19 ± 0.14
18 | GUGAAGCAAUAUUACGUACA | -0.778 ± 0.082 | 0.51 ± 0.12
19 | GUGAAGCAAUAUUACGUACU | -1.14 ± 0.055 | -0.0726 ± 0.07
20 | GUGAAGCAAUAUUACGUAGU | -2.19 ± 0.064 | -1.1 ± 0.08
21 | GUGAAGCAAUAUUACGUGAG | -1.26 ± 0.076 | -0.555 ± 0.097

Row | Sequence | self-splicing fitness (ln) (30 °C) | self-splicing fitness (ln) (37 °C)
22 | GUGAAGCAAUAUUACGUUUU | -4.1 ± 0.14 | -3.88 ± 0.22
23 | GUGCAGCAAUAUUACGAAAA | -2.34 ± 0.19 | -2.49 ± 0.22
24 | GUGCAGCAAUAUUACGAACG | -2.4 ± 0.2 | -0.213 ± 0.14
25 | GUGCAGCAAUAUUACGACGA | -0.272 ± 0.15 | 0.701 ± 0.14
26 | GUGCAGCAAUAUUACGAUGA | -0.903 ± 0.14 | -0.772 ± 0.14
27 | GUGCAGCAAUAUUACGCAAA | -0.928 ± 0.1 | -0.119 ± 0.13
28 | GUGCAGCAAUAUUACGCACU | -3.41 ± 0.28 | -2.3 ± 0.37
29 | GUGCAGCAAUAUUACGCCAU | -2.23 ± 0.16 | -2.62 ± 0.23
30 | GUGCAGCAAUAUUACGCCGA | -1.56 ± 0.13 | -0.832 ± 0.12
31 | GUGCAGCAAUAUUACGCCUG | -2.95 ± 0.2 | -2.49 ± 0.26
32 | GUGCAGCAAUAUUACGCGCA | -2.62 ± 0.27 | 
33 | GUGCAGCAAUAUUACGCGGA | -2.35 ± 0.27 | -1.08 ± 0.12
34 | GUGCAGCAAUAUUACGCUAG | -3.71 ± 0.31 | -2.47 ± 0.32
35 | GUGCAGCAAUAUUACGCUCU | -1.77 ± 0.14 | -0.404 ± 0.15
36 | GUGCAGCAAUAUUACGCUGA | -2.38 ± 0.17 | -1.6 ± 0.16
37 | GUGCAGCAAUAUUACGGAUC | 0.0925 ± 0.13 | 0.198 ± 0.14
38 | GUGCAGCAAUAUUACGGCCG | -1.8 ± 0.26 | -1.12 ± 0.3
39 | GUGCAGCAAUAUUACGGCUU | -0.306 ± 0.052 | -0.128 ± 0.072
40 | GUGCAGCAAUAUUACGGGUA | -2.35 ± 0.1 | -2.12 ± 0.12
41 | GUGCAGCAAUAUUACGGGUG | -3.36 ± 0.12 | -1.87 ± 0.12
42 | GUGCAGCAAUAUUACGUACA |  | -2.03 ± 0.34
